According to paper PMC5426458, “A practical strategy to design and develop an isoform-specific fluorescent probe for a target enzyme: CYP1A1 as a case study” (Chemical Science, 2016):

Tests used:
[1] = biological target: T1, CYP1A1 (Homo sapiens, UniProt P04798); assay: inhibition of NBCeN-O-dechloroethylation in human tissue preparations and living cells ([…] in cells); format: cell-based
T1 construct: endogenous CYP1A1 in human tissue microsomes, A549 and SKOV3 cells
T1 sequence (P04798 1-512): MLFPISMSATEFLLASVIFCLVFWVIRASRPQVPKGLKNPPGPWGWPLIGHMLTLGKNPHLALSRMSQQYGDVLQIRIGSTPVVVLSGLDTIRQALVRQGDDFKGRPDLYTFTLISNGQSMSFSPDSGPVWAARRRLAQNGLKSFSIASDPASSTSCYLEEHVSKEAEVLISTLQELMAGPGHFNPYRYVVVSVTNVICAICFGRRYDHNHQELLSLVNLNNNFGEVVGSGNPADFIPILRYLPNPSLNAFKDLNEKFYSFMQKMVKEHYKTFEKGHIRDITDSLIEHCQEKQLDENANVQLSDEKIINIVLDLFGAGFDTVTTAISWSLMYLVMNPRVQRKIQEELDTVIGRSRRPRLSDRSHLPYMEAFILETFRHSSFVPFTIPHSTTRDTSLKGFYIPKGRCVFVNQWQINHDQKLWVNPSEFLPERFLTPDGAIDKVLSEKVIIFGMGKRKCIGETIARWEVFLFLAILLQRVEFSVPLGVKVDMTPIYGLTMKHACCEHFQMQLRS

[2] = substrate: CCCCN1C(=O)c2cccc3c(OCCCl)ccc(c23)C1=O; assay: purified protein; format: biochemical, Homo sapiens; conditions: heme

`Oc1ccc(/C=C/c2cc(O)cc(O)c2)cc1` [resveratrol] was tested, and the “inhibition of NBCeN-O-dechloroethylation in human tissue preparations and living” value [1] was “formation of NBHN could be potently inhibited by ABT (a broad CYP inhibitor) and resveratrol (a selective inhibitor of CYP1A1)”.

B1: CYP1A1 (Homo sapiens) (protein)
chain: T1 sequence (P04798 1-512)
notes: recombinant CYP1A1
Molecule B1 has a Km ([2]; NADPH active site, O-chloroethyl group cleaved, docking suggests pi-pi stacking with Phe-224) of 0.84 µM.

B2: CYP1A2 (Homo sapiens) (protein)
chain: ALSQSVPFSATELLLASAIFCLVFWVLKGLRPRVPKGLKSPPEPWGWPLLGHVLTLGKNPHLALSRMSQRYGDVLQIRIGSTPVLVLSRLDTIRQALVRQGDDFKGRPDLYTSTLITDGQSLTFSTDSGPVWAARRRLAQNALNTFSIASDPASSSSCYLEEHVSKEAKALISRLQELMAGPGHFDPYNQVVVSVANVIGAMCFGQHFPESSDEMLSLVKNTHEFVETASSGNPLDFFPILRYLPNPALQRFKAFNQRFLWFLQKTVQEHYQDFDKNSVRDITGALFKHSKKGPRASGNLIPQEKIVNLVNDIFGAGFDTVTTAISWSLMYLVTKPEIQRKIQKELDTVIGRERRPRLSDRPQLPYLEAFILETFRHSSFLPFTIPHSTTRDTTLNGFYIPKKCCVFVNQWQVNHDPELWEDPSEFRPERFLTADGTAINKPLSEKMMLFGMGKRRCIGEVLAKWEIFLFLAILLQQLEFSVPPGVKVDLTPIYGLTMKHARCEHVQARLRFSIN
notes: recombinant CYP1A2
B2 was tested, and the Km ([2]; NADPH) was 0.81 µM.
